In article PMC12403569, “The regulatory network of Coprinopsis cinerea transcription factor Skn7 collaborates with bHLH1 during fungal-fungal interactions”:

T1: Skn7 DBD (Coprinopsis cinerea, UniProt A8PG35 214-443)
T1 sequence: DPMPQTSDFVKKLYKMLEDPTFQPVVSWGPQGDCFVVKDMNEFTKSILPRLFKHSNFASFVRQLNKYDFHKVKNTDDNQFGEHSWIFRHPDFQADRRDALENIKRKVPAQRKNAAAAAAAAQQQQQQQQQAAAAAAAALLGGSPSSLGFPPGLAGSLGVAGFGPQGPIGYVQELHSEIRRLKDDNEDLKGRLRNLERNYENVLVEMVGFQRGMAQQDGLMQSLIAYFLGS

T2: truncated bHLH1 (Coprinopsis cinerea, UniProt A8P5K0 311-490)
T2 sequence: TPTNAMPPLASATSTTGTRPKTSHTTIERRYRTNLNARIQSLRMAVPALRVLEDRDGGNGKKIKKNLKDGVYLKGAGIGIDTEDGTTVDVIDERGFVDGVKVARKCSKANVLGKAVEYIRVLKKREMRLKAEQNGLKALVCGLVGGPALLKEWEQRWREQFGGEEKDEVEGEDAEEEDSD

B1: gst promoter probe (dsDNA)
DNA 1: GATGTGTCGACGTCTGA
DNA 2: TCAGACGTCGACACATC
B2: nrps promoter probe (dsDNA)
DNA 1: TAACCATGTCCAACTCTAAT
DNA 2: ATTAGAGTTGGACATGGTTA
B3: sod2 promoter probe (dsDNA)
DNA 1: AGAAGGATCTAGAGACTCGG
DNA 2: CCGAGTCTCTAGATCCTTCT
B4: easA promoter probe (dsDNA)
DNA 1: TGGTGGACAAGTTTCCGT
DNA 2: ACGGAAACTTGTCCACCA
B5: lcc9 promoter probe (dsDNA)
DNA 1: CATTCTGTCTAGAAT
DNA 2: ATTCTAGACAGAATG
B6: lcc9 promoter probe for bHLH1 (dsDNA)
DNA 1: ATTCATTCTGTCTAGAATGGG
DNA 2: CCCATTCTAGACAGAATGAAT

Target: T1, Skn7 DBD
Assay: EMSA; poly d(I-C); 25 mM HEPES, 4 mM DTT, 100 mM KCl, 2 mM MgCl2, 10% glycerol, 0.01 mg/mL BSA, pH 7.3; 200 ng probe, 200 ng poly d(I-C), 20 µL; temperature not stated
Details: protein: recombinant; tags: His-SUMO, removed with Ulp1; label: 5'-6-carboxyfluorescein

Binding result, binds:
B1, B2, B3, B4, B5

Target: T2, truncated bHLH1
Assay: EMSA; 25 mM HEPES, 4 mM DTT, 100 mM KCl, 2 mM MgCl2, 10% glycerol, 0.01 mg/mL BSA, pH 7.3; 200 ng probe, 200 ng poly d(I-C), 20 µL; temperature not stated
Details: protein: recombinant; tags: His; chain copies: 2

Binding result, binds:
B6
